From patent publication US20130210709A1 (ANCHOR THERAPEUTICS, published 2013) come the findings set out here.

Ends that are not written are not given here. * marks the point of attachment. Palmitoyl = CCCCCCCCCCCCCCCC(=O)*

Experiment [1] concerns the target T1, CXCR4 receptor (human, UniProt P61073 1-352). Kind of experiment: cell-based or functional assay.
Experiment [2] has as its target T1, CXCR4 receptor. As to the kind of experiment: cell-based or functional assay. The source holds these as a separate data set.

T1 sequence (P61073 whole entry): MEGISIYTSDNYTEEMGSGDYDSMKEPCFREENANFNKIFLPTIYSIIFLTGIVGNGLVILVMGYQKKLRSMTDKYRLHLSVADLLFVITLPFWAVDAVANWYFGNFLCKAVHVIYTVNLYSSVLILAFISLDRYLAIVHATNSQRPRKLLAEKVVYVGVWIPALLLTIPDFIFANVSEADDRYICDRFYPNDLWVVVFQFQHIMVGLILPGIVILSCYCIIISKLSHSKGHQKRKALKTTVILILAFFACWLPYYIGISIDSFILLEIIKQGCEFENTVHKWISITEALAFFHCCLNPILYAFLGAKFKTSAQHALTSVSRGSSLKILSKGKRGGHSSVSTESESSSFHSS

B1: CXCR4 i2 loop compound 76 (peptide)
peptide: DRYLAIVHATNSQRPRKLL-NH2
modifications: not fully specified (N-terminus); also: second lipid on tether backbone (C31H62NC(O)- tether)
As for B1, the “Peak Ratio, chemotaxis, SUPB-15, 1.0 uM” value with CXCR4 receptor [1] was found to be 1.

B2: CXCR4 i2 loop compound 82 (peptide)
peptide: Palmitoyl-HATNSQRPRKLLAEK-NH2
SMILES: CCCCCCCCCCCCCCCC(=O)N[C@@H](Cc1c[nH]cn1)C(=O)N[C@@H](C)C(=O)N[C@H](C(=O)N[C@@H](CC(N)=O)C(=O)N[C@@H](CO)C(=O)N[C@@H](CCC(N)=O)C(=O)N[C@@H](CCCNC(=N)N)C(=O)N1CCC[C@H]1C(=O)N[C@@H](CCCNC(=N)N)C(=O)N[C@@H](CCCCN)C(=O)N[C@@H](CC(C)C)C(=O)N[C@@H](CC(C)C)C(=O)N[C@@H](C)C(=O)N[C@@H](CCC(=O)O)C(=O)N[C@@H](CCCCN)C(N)=O)[C@@H](C)O
As to B2, in the experiment with CXCR4 receptor [1], the “AUC (% of vehicle), chemotaxis, SUPB-15, 1.0 uM” value (“AUC (% of vehicle), chemotaxis” for short) is 125 % of vehicle; the “Max (% of vehicle), chemotaxis, SUPB-15, 1.0 uM” value (shortened to “Max (% of vehicle), chemotaxis”) was 126 % of vehicle; the “Peak Ratio, chemotaxis, SUPB-15, 1.0 uM” value stood at 0.2.

B3: CXCR4 i2 loop compound 80 (peptide)
peptide: Palmitoyl-HATNSQRPRKLLA-NH2
SMILES: CCCCCCCCCCCCCCCC(=O)N[C@@H](Cc1c[nH]cn1)C(=O)N[C@@H](C)C(=O)N[C@H](C(=O)N[C@@H](CC(N)=O)C(=O)N[C@@H](CO)C(=O)N[C@@H](CCC(N)=O)C(=O)N[C@@H](CCCNC(=N)N)C(=O)N1CCC[C@H]1C(=O)N[C@@H](CCCNC(=N)N)C(=O)N[C@@H](CCCCN)C(=O)N[C@@H](CC(C)C)C(=O)N[C@@H](CC(C)C)C(=O)N[C@@H](C)C(N)=O)[C@@H](C)O
In the case of B3, in the experiment with CXCR4 receptor [1], the “AUC (% of vehicle), chemotaxis” value is 102 % of vehicle; the “Max (% of vehicle), chemotaxis” value was 69 % of vehicle; the “Peak Ratio, chemotaxis, SUPB-15, 1.0 uM” value was 0.2.

B4: CXCR4 i2 loop compound 81 (peptide)
peptide: Palmitoyl-HATNSQRPRKLLAE-NH2
SMILES: CCCCCCCCCCCCCCCC(=O)N[C@@H](Cc1c[nH]cn1)C(=O)N[C@@H](C)C(=O)N[C@H](C(=O)N[C@@H](CC(N)=O)C(=O)N[C@@H](CO)C(=O)N[C@@H](CCC(N)=O)C(=O)N[C@@H](CCCNC(=N)N)C(=O)N1CCC[C@H]1C(=O)N[C@@H](CCCNC(=N)N)C(=O)N[C@@H](CCCCN)C(=O)N[C@@H](CC(C)C)C(=O)N[C@@H](CC(C)C)C(=O)N[C@@H](C)C(=O)N[C@@H](CCC(=O)O)C(N)=O)[C@@H](C)O
B4: in the experiment with CXCR4 receptor [1], the “AUC (% of vehicle), chemotaxis” value is 79.8 % of vehicle; the “Max (% of vehicle), chemotaxis” value is 76.5 % of vehicle; the “Peak Ratio, chemotaxis, SUPB-15, 1.0 uM” value stood at 0.2.

B5: CXCR4 i2 loop compound 83 (peptide)
peptide: Palmitoyl-HATNSQRPRKLLAEKV-NH2
SMILES: CCCCCCCCCCCCCCCC(=O)N[C@@H](Cc1c[nH]cn1)C(=O)N[C@@H](C)C(=O)N[C@H](C(=O)N[C@@H](CC(N)=O)C(=O)N[C@@H](CO)C(=O)N[C@@H](CCC(N)=O)C(=O)N[C@@H](CCCNC(=N)N)C(=O)N1CCC[C@H]1C(=O)N[C@@H](CCCNC(=N)N)C(=O)N[C@@H](CCCCN)C(=O)N[C@@H](CC(C)C)C(=O)N[C@@H](CC(C)C)C(=O)N[C@@H](C)C(=O)N[C@@H](CCC(=O)O)C(=O)N[C@@H](CCCCN)C(=O)N[C@H](C(N)=O)C(C)C)[C@@H](C)O
Consider B5, for which, in the experiment with CXCR4 receptor [1], the “AUC (% of vehicle), chemotaxis” value is 126 % of vehicle; the “Max (% of vehicle), chemotaxis” value was 110 % of vehicle; the “Peak Ratio, chemotaxis, SUPB-15, 1.0 uM” value is 1.

B6: CXCR4 i2 loop compound 78 (peptide)
peptide: Palmitoyl-VHATNSQRPRKLLA-NH2
SMILES: CCCCCCCCCCCCCCCC(=O)N[C@H](C(=O)N[C@@H](Cc1c[nH]cn1)C(=O)N[C@@H](C)C(=O)N[C@H](C(=O)N[C@@H](CC(N)=O)C(=O)N[C@@H](CO)C(=O)N[C@@H](CCC(N)=O)C(=O)N[C@@H](CCCNC(=N)N)C(=O)N1CCC[C@H]1C(=O)N[C@@H](CCCNC(=N)N)C(=O)N[C@@H](CCCCN)C(=O)N[C@@H](CC(C)C)C(=O)N[C@@H](CC(C)C)C(=O)N[C@@H](C)C(N)=O)[C@@H](C)O)C(C)C
As for B6, in the experiment with CXCR4 receptor [1], the “AUC (% of vehicle), chemotaxis” value was 71.8 % of vehicle; the “Max (% of vehicle), chemotaxis” value was 72.3 % of vehicle; the “Peak Ratio, chemotaxis, SUPB-15, 1.0 uM” value amounted to 0.2.

B7: CXCR4 i2 loop compound 79 (peptide)
peptide: Palmitoyl-HATNSQRPRKL-NH2
SMILES: CCCCCCCCCCCCCCCC(=O)N[C@@H](Cc1c[nH]cn1)C(=O)N[C@@H](C)C(=O)N[C@H](C(=O)N[C@@H](CC(N)=O)C(=O)N[C@@H](CO)C(=O)N[C@@H](CCC(N)=O)C(=O)N[C@@H](CCCNC(=N)N)C(=O)N1CCC[C@H]1C(=O)N[C@@H](CCCNC(=N)N)C(=O)N[C@@H](CCCCN)C(=O)N[C@@H](CC(C)C)C(N)=O)[C@@H](C)O
As to B7, in the experiment with CXCR4 receptor [1], the “AUC (% of vehicle), chemotaxis” value was 109 % of vehicle; the “Max (% of vehicle), chemotaxis” value was 110 % of vehicle; the “Peak Ratio, chemotaxis, SUPB-15, 1.0 uM” value was 0.2.

B8: CXCR4 i4 loop compound 107 (peptide)
peptide: GAKFKTSAQHALTSVSRGSSLKILSKGKRGGHSSVST-NH2
modifications: not fully specified (N-terminus); also: dual lipid, backbone lipid not given here
Turning to B8, in the experiment with CXCR4 receptor [2], the “AUC (% of Vehicle), CHTX, CEM, 1.0 uM” value was 57.3 % of Vehicle; the “Max (% of Vehicle), CHTX, CEM, 1.0 uM” value was 49.5 % of Vehicle; the “Peak Ratio, CHTX, CEM, 1.0 uM” value was found to be 5.
